Data on two molecules can be found in US7205387B2, “Recombinant polypeptide useful for neurotrophin receptor mediated gene delivery and as neurotrophin agonist” (Agency for Science, Technology and Research, priority 2003, dated 2007).

Bridge positions count the residues as written; N and C are the ends. Ends that are not written are not given here.

The test system of one test is primary cortical neurons. Nature of the test: Gene delivery to primary cultures of cortical neurons. Format: cell-based, rat. The procedure: Primary cultures of neurons were established from the cortices of embryonic Wistar rats at gestational day 20. Cortices freed of meninges were dissected and individual cells were dispersed mechanically by trituration of minced tissue in 3 ml DMEM medium supplemented with 2% FBS. The suspension was allowed to settle in a centrifuge tube. The cells in the supernatant were collected by centrifugation and resuspended gently in DMEM with 10% FBS. Viability of the cells was assessed prior to plating using trypan blue. Cells were plated onto microplates pre-coated with poly-L-lysine/laminin at a density of 7.5×10^5 viable cells/cm^2. After a two-hour incubation period to allow neurons to attach, the medium and unattached cells were removed and replaced by serum-free DMEM/F12 medium with 1% N2 supplement (Invitrogen, Carlsbad, Calif., USA). The cell were then incubated at 37° C. in 5% CO2 in a humidified incubator. After 2–5 days of culture, the neuron cells were used for transfection experiments. Gene delivery complexes were also tested on primary cultures of cortical neurons and glial cells in a similar fashion. […] Four hours later, an equal volume of DMEM-F12/N2 was added. One to two days after transfection, the cell culture medium was removed and the cells were rinsed in phosphate-buffered saline (PBS). Enough Reporter Lysis Buffer (Promega, Wisconsin, Md., USA) to cover the bottom surface was added to each well (50 μl/well for 48-well plates). After one freeze-thaw cycle, the lysates were tested for luciferase activity using the Luciferase Assay System (Promega) and a single-tube luminometer (Berthold Lumat L B 9507, Bad Wildbad, Germany). The total protein concentration of each lysate was determined using the DC Protein assay (Bio-Rad, Hercules, Calif., USA). The results were expressed in relative light units (RLU) per milligram of total protein.

The test system of a further test is primary glial cells. Nature of the test: Gene delivery to primary cultures of glial cells. In kind it is cell-based, rat. The procedure: Primary cultures of glial cells were established from the cortices of 20-day old embryonic Wistar rats. Individual cells were collected as described above. The cells were plated at a density of 4×10^5 viable cells/cm^2 on poly-L-lysine/laminin coated dishes and grown to confluence for 7 days in DMEM/F12 medium supplemented with 10% FCS. The day before transfection, the cells were detached and plated into coated microplates at a density of 2.5×10^4 cells per well. Gene delivery complexes were also tested on primary cultures of cortical neurons and glial cells in a similar fashion. […] Four hours later, an equal volume of DMEM-F12/N2 was added. One to two days after transfection, the cell culture medium was removed and the cells were rinsed in phosphate-buffered saline (PBS). Enough Reporter Lysis Buffer (Promega, Wisconsin, Md., USA) to cover the bottom surface was added to each well (50 μl/well for 48-well plates). After one freeze-thaw cycle, the lysates were tested for luciferase activity using the Luciferase Assay System (Promega) and a single-tube luminometer (Berthold Lumat L B 9507, Bad Wildbad, Germany). The total protein concentration of each lysate was determined using the DC Protein assay (Bio-Rad, Hercules, Calif., USA). The results were expressed in relative light units (RLU) per milligram of total protein.

The target in another test is T1, TrkA (Rattus norvegicus, UniProt P35739).
T1 construct: endogenous in cells; host or cells: PC12 (rat pheochromocytoma, ATCC)
Nature of the test: Phospho-TrkA immunoblot in PC12 cells. In kind it is cell-based. The protocol:
(§1) Immunoblotting experiments were conducted to test whether the chimeric polypeptides could, like NGF, induce autophosphorylation of TrkA and activation of its signal transduction pathways. PC12 cells were seeded in 6-well plates at a density of 2×10^6 cells/well and cultured in RPMI 1640 containing 0.5% FBS and 0.25% horse serum for 2 days. The low serum concentrations were necessary to reduce the basal levels of phosphorylation. The medium was refreshed two hours before beginning treatment. The cells were incubated with the polypeptides or NGF in serum-free medium for 15–20 min. The cells were then washed in PBS, lysed, and sonicated. The cell lysates were resolved by SDS-PAGE and transferred to a nitrocellulose membrane for immunoblotting. The primary antibodies used include Phospho-TrkA (Tyr490) antibody, Phospho-p44/p42 MAPK (Thr202/Tyr204) monoclonal antibody, and Phospho-Akt (Ser473) monoclonal antibody, all obtained from Cell Signaling Technology (Beverly, Mass., USA). Colorimetric detection was performed by standard techniques after using horse-radish peroxidase-conjugated secondary antibodies. In some experiments, TrkA tyrosine kinase inhibitors K-252a or AG879 (both from Calbiochem, La Jolla, Calif., USA) were used. In these cases, PC12 cells were incubated with 100 nM K-252a or 10 μM AG879 before addition of polypeptides or NGF.

The test system of another test is Erk1 and Erk2. Nature of the test: Phospho-Erk1/Erk2 (p44/p42 MAPK) immunoblot in PC12 cells. Format: cell-based, rat. The procedure:
as §1

The mark [1] stands for this setting: peptide/DNA 0.75 nmol/μg (N/P ratio of 2.5), chloroquine.
Where [2] appears, read: 0.25 μg/well pCAGluc, PEI600, 24 h.

T1 sequence (P35739 33-799): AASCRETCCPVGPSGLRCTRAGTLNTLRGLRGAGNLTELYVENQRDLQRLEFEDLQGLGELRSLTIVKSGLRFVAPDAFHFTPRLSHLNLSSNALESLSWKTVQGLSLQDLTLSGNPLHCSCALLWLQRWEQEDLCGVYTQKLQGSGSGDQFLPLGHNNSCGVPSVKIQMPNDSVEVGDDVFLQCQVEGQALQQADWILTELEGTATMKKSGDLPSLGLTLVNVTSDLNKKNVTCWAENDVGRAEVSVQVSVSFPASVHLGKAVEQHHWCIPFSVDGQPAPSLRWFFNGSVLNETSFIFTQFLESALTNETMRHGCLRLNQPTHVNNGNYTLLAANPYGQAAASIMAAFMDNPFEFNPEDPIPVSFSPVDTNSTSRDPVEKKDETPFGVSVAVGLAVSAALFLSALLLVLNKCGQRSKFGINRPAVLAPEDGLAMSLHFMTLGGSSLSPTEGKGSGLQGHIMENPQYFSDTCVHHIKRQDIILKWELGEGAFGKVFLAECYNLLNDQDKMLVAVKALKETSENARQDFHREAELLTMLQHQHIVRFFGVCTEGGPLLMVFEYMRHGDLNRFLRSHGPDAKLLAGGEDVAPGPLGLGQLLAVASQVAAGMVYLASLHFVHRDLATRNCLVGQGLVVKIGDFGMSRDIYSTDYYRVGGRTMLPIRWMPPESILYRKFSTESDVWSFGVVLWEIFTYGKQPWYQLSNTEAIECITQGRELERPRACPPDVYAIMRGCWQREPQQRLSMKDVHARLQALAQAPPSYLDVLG

Take “CTTTHTFVKALTMDGKQAAWRFIRIDTACKKKKKKKKKK (CTTTHTFVKALTMDGKQAAWRFIRIDTACKKKKKKKKKK; disulfide 1-29) [NL4-10K]”: the “gene transfer efficiency relative to the non-targeted control (10K)” value in the test on primary cortical neurons (setting [1]) was determined as 22 fold. Further, the “difference between transfection efficiencies of NL4-10K and 10K” value in the test with primary glial cells (setting [1]) is listed as “not significant”. Also, the “activation (phosphorylation) of TrkA” value with TrkA (5 μM peptide, 20 min) is on record as “induced activation”. Also, in the test with TrkA (NL4-10K/DNA complexes (N/P ratio of 5)), the “activity when complexed with DNA” value is on record as “retained its activity”. Also, the “activation (phosphorylation) of Erk 1 and Erk 2” value in the test with Erk1 and Erk2 (5 μM peptide, 20 min) is reported as “induced activation”.

B1: SPKR4NL1-2: chimeric protein: (SPKR)4 DNA-binding domain, α-helical linker, targeting domain with loops 1 and 2 of NGF (aa 17–67), His10 tag (protein)
chain: MGHHHHHHHHHHSSGHIEGRHMSPKRSPKRSPKRSPKRGGTYLSEDELKAAEAAFKRHNPTGSCSVSVWVGDKTTATDIKGKEVMVLGEVNINNSVFKQYFFETKCRDPNPVDSG
modifications: SPKR4NL1-2
As to B1, the “effectiveness of triple complexes relative to (SPKR)4 triple complexes” value with primary cortical neurons (setting [2]) is recorded as “nine times”. Further, in the test with primary glial cells (setting [2]), the “difference between SPKR4NL1-2 and (SPKR)4 triple complexes” value is on record as “essentially no difference”. Further, the “activation of TrkA (phospho-TrkA Western blot)” value with TrkA (8 μM, 20 min) is listed as “activates TrkA”. For the same molecule, the “Erk1 and Erk2 activation compared with (SPKR)4 control” value in the test on Erk1 and Erk2 (1–8 μM, 15 min) is “higher level of Erk1 and Erk2 activation”.
